Patent US5459256A, “Lipophilic, aminohydrolase-activated prodrugs” (priority 1991, dated 1995)

What was measured:
[1] = system: HIV-1/IIIB (CD4^+ ATH8 cells); assay: HIV cytopathic effect inhibition assay in ATH8 cells (% protection); assay type: cell-based; details: additive alone, no test compound
Experimental: (§1) HIV Cytopathic Effect Inhibition Assay.
The HIV cytopathic effect inhibition assay was performed as previously described. (Mitsuya, H. & Broder, S. Proc. Nat. Acad. Sci. USA 1986, 83, 1911) Briefly, 200,000 target CD4^+ ATH8 cells were exposed to cell-free HIV-1/IIIB at a dose of 43 (or 1087 for compound 1g) TCID50 (50% tissue culture infectious dose) for 1 h, resuspended in 2 ml of fresh culture media containing interleukin 2, and cultured at 37° C. with or without test compounds in 5% CO2 -containing humidified air. On day 8 in culture, the viable cells were counted by using the dye exclusion method. All compounds, including inactives, were evaluated a minimum of two times in separate experiments. […] The % protection against the virus was determined by the following formula: 100 times [(the number of viable cells exposed to HIV-1 and cultured in the presence of the compound minus the number of viable cells exposed to HIV-1 and cultured in the absence of compound) divided by (the number of viable cells cultured alone minus the number of viable cells exposed to HIV-1 and cultured in the absence of the compound)]. The % toxicity of a compound on the target cells was determined by the following formula: 100 times [1 minus (the number of total viable cells cultured in the presence of the compound divided by the number of total viable cells cultured alone)]. […]

CD4^+ ATH8 cells = assay: Toxicity on ATH8 target cells (% toxicity, dye exclusion); assay type: cell-based; details: additive alone, no test compound
Experimental: as §1
The HIV cytopathic effect inhibition assay was performed as previously described. […] On day 8 in culture, the viable cells were counted by using the dye exclusion method. All compounds, including inactives, were evaluated a minimum of two times in separate experiments. Data reported in Table II are from representative tests. The % protection against the virus was determined by the following formula: 100 times [(the number of viable cells exposed to HIV-1 and cultured in the presence of the compound minus the number of viable cells exposed to HIV-1 and cultured in the absence of compound) divided by (the number of viable cells cultured alone minus the number of viable cells exposed to HIV-1 and cultured in the absence of the compound)]. The % toxicity of a compound on the target cells was determined by the following formula: 100 times [1 minus (the number of total viable cells cultured in the presence of the compound divided by the number of total viable cells cultured alone)]. Calculated percentages equal to or less than zero are expressed as 0%.

B1: ADA: adenosine deaminase (adenosine aminohydrolase, EC 3.5.4.4) from calf intestinal mucosa (protein, UniProt P56658 2-363, looked up)
Adenosine deaminase: AQTPAFNKPKVELHVHLDGAIKPETILYYGRKRGIALPADTPEELQNIIGMDKPLSLPEFLAKFDYYMPAIAGCREAVKRIAYEFVEMKAKDGVVYVEVRYSPHLLANSKVEPIPWNQAEGDLTPDEVVSLVNQGLQEGERDFGVKVRSILCCMRHQPSWSSEVVELCKKYREQTVVAIDLAGDETIEGSSLFPGHVKAYAEAVKSGVHRTVHAGEVGSANVVKEAVDTLKTERLGHGYHTLEDATLYNRLRQENMHFEVCPWSSYLTGAWKPDTEHPVVRFKNDQVNYSLNTDDPLIFKSTLDTDYQMTKNEMGFTEEEFKRLNINAAKSSFLPEDEKKELLDLLYKAYGMPSPASAEQCL
protection by additive alone (in words) [1]: neither influenced the viability nor protected infected ATH8 cells | toxicity / viability effect of additive alone (in words) (CD4^+ ATH8 cells): neither influenced the viability
